According to patent publication US20240218342A1, “SITE-SPECIFIC GLYCAN REMODELING OF LYSOSOMAL ENZYMES AND APPLICATIONS THEREOF” (priority 2021, published 2024):

Molecular target: GlcNAc-peptide derived from rhGAA containing N470 glycosite (human)
Sequence (peptide, as listed by the source): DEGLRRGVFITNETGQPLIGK

transglycosylation of oxazoline 1 to the GlcNAc-peptide, yield of glycopeptide 66: 53%
Substance: Endo A-N171A (enzyme)
